According to paper PMC5056641:

Molecular target: SRSF1 (ASF/SF2), unphosphorylated (human, UniProt Q07955 1-248)
Assay: filter binding

Chain of SRSF1 (ASF/SF2), unphosphorylated (Q07955 whole entry): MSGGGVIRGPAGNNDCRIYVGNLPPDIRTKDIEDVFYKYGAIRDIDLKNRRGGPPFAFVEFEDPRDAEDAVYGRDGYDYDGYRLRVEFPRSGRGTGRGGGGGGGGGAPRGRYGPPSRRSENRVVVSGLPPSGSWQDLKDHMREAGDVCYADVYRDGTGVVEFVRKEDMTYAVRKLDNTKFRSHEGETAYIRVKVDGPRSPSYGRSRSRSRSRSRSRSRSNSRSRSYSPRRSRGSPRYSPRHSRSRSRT

B1: Ron ESE 13mer (ssRNA)
RNA: AGGCGGAGGAAGC
- apparent K (half saturation): 66 ± 2 nM
